Assay results: US20120276102A1 (Pfizer, published 2012)
Numbering of substitutions follows the chain as printed.

T1: human IL-2Rβ (human, UniProt P14784 27-239)
T1 sequence (looked up): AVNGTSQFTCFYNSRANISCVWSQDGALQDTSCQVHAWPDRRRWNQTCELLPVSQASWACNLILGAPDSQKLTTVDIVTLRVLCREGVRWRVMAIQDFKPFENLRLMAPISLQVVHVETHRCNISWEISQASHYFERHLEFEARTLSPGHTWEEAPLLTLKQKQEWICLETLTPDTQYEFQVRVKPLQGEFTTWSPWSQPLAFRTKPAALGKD

T2: human gamma (γ) common chain expressed on CHO cells (human, UniProt P31785 23-369)
T2 construct: whole, on cells; Control protein; also called human IL-2R-γ common subunit; human γ-common
T2 sequence (looked up): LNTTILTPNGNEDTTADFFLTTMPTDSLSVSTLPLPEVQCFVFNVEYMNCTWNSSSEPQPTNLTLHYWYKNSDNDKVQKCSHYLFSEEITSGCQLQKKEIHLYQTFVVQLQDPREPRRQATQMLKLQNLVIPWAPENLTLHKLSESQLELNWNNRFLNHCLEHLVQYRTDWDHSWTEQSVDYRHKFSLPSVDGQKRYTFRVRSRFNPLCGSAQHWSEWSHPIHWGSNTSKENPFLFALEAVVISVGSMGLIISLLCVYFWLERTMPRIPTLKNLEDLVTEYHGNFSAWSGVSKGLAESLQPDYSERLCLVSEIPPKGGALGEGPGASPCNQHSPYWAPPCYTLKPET

B1: AbG (antibody, IgG1, V domains shown)
VH: QVQLQESGPGLVKPSETLSLTCAVSGYSISSGYYWGWIRQPPGKGLEWIGSISHTGNTYYNPPLKSRVTISVDTSKNQFSLKLSSVTAADTAVYYCARGGGISRPEYWGQGTLVTVSS
VL: SSELTQDPAVSVALGQTVRITCQGDSLRTYYASWYQQKPGQAPVLVIYGKHKRPSGIPDRFSGSSSGNTASLTITGAQAEDEADYYCVTRSVKGNPHVLFGGGTQLTVL
notes: As for AbA: IgG1/lambda, CDR3 graft, residue limits derived; also called VHP/VL18
B2: AbC (antibody, IgG1, V domains shown)
VH: B1 VH
VL: B1 VL with V88S, T89S, V92R, K93H
notes: As for AbA: IgG1/lambda, CDR3 graft, residue limits derived; also called VHP/VL11
B3: AbA (antibody, V domains shown)
VH: B1 VH
VL: B1 VL with T89A, K93V
notes: Human IgG1/lambda, transiently expressed; also called VHP/VL2
B4: AbB (antibody, IgG1, V domains shown)
VH: B1 VH
VL: B1 VL with T89S, S91A, K93V
notes: As for AbA: IgG1/lambda, CDR3 graft, residue limits derived; also called VHP/VL3
B5: AbK (antibody, IgG1, V domains shown)
VH: B1 VH with G99F, G100M, I102F, S103G
VL: B1 VL with T89S, S91A, K93V
notes: As for AbA: IgG1/lambda, CDR3 graft, residue limits derived; also called VH3/VL3

Biological target: T1, human IL-2Rβ
Assay: SPR, Ab captured
Method: (§1) The specificity of binding of a subset of transiently expressed anti-IL-21R binding proteins (here antibodies) was tested on a BIACORE™ 2000 surface plasmon resonance instrument. Anti-human-IgG, anti-murine immunoglobulin antibodies, and murine IL-21R-H/F were immobilized onto a research-grade carboxymethyl-dextran chip (CM5) using standard amine coupling. The sensor chip surface was activated with EDC/NHS for 7 min at a flow rate of 20 μl/min. The first flow cell was used as reference surface to correct for bulk refractive index, matrix effects, and nonspecific binding. […] Remaining activated groups were blocked with 1.0 M ethanolamine (pH 8.0). The molecular weights of the anti-human IgG and the anti-murine IgG were both 150 kD, and the molecular weight of the IL-21R monomer was 27 kD.
(§2) Conditioned media containing anti-IL-21R antibodies and antibody controls (murine anti-human IL-2Rβ and murine anti-human IL-4R(R&D Systems, Minneapolis, Minn.); human anti-human IL-13 (Wyeth, Cambridge, Mass.)) were diluted in HBS/EP buffer supplemented with 0.2% bovine serum and injected onto all four flow cells of the BIACORE™ chip, capturing 500-700 (RU) of antibody on the species-appropriate capture antibody. Following a 5 sec washing period, 50 nM solutions of a positive control protein (murine IL-21R-H/F), two human proteins related to IL-21R (human IL-2Rβ and human sIL-4R(R&D Systems)), or an unrelated His/FLAG-tagged protein (human IL-13-H/F) were injected over the captured antibodies on the chip. The association and dissociation phases were monitored for 120 and 180 sec, respectively, followed by two 5 μl injections of glycine (pH 1.5) to regenerate a fully active capturing surface. All binding experiments were done at 25° C. in HBS/EP buffer. Blank and buffer effects were subtracted for each sensorgram using double referencing.

binding result | Binder
no binding (tested: 50 nM) | B1
no binding (tested: 50 nM) | B2
no binding (tested: 50 nM) | B3
no binding (tested: 50 nM) | B4
no binding (tested: 50 nM) | B5

Biological target: T3, human soluble IL-4R (human, UniProt P24394 26-232, limits assumed)
T3 construct: also called human sIL-4R
Assay: SPR, Ab captured
Method: as §1, §2

binding result | Binder
no binding (tested: 50 nM) | B1
no binding (tested: 50 nM) | B2
no binding (tested: 50 nM) | B3
no binding (tested: 50 nM) | B4
no binding (tested: 50 nM) | B5

Biological target: T4, human IL-13-His/FLAG (human, UniProt P35225 35-146, limits assumed)
T4 construct: Unrelated His/FLAG-tagged control; also called human IL-13-H/F
T4 sequence (P35225 35-146 limits assumed): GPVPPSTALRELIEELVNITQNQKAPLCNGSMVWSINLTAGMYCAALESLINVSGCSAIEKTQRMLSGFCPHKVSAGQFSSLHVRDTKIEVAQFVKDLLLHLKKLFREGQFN
Assay: SPR, Ab captured
Method: as §1, §2

binding result | Binder
no binding (tested: 50 nM) | B1
no binding (tested: 50 nM) | B2
no binding (tested: 50 nM) | B3
no binding (tested: 50 nM) | B4
no binding (tested: 50 nM) | B5

Biological target: T5, human IL-21R expressed on cells (human, UniProt Q9HBE5 20-538)
T5 construct: also called human IL-21R-BaF3; human IL-21R-TF1
T5 sequence (Q9HBE5 20-538 limits assumed): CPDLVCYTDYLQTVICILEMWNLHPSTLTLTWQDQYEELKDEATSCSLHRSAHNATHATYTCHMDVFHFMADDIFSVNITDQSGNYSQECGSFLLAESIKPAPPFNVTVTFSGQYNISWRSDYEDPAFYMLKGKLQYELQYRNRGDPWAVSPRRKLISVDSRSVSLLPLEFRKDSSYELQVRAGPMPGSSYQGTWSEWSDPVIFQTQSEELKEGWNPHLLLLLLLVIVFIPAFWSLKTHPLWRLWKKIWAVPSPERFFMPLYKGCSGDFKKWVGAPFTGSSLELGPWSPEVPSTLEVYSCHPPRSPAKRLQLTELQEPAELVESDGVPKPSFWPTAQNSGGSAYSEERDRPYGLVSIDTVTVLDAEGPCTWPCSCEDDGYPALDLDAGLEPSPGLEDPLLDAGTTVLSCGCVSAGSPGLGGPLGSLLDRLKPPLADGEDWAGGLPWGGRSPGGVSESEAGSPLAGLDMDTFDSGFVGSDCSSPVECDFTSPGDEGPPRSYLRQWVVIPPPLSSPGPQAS
Assay: cell ELISA, CHO cells
Method: (§3) A subset of binding proteins was tested for binding to rat, cynomolgus monkey, human IL-21R, or human IL-2R-γ common subunit expressed transiently on the surfaces of CHO-PA-Dukx cells. Cells were transfected 48 hr prior to the assay. On the day of the assay, cells were washed gently 5× in PBS containing 0.9 mM CaCl₂ and 0.45 mM MgCl₂ (PBS/CaMg) on an automated plate washer (Titertek, Huntsville, Ala.), and blocked for 1 hr at RT in PBS/CaMg/5% nonfat dry milk. Conditioned media from transiently expressed anti-IL-21R IgGs were serially diluted in blocking buffer and added to the cells in the blocked plates for 1 hr at RT. Cells were washed 5× with PBS/CaMg and then incubated with horseradish peroxidase-conjugated anti-human IgG for 1 hr at RT. Cells were then washed 10× in PBS/CaMg and all of the wash buffer was removed. Cells were incubated with 100 μl TMB until the color reaction reached saturation, stopped with 100 μl of 0.18 M H₂SO₄, and read at A450 on a Perkin Elmer ENVISION™ plate reader.

A450 (13 nM Ab) [A450] | Binder
1.35 | B1
1.22 | B2
1.2 | B3
1.15 | B4
1.36 | B5

Biological target: T6, rat IL-21R expressed on cells (rat)
T6 construct: whole, on cells
Assay: cell ELISA, CHO cells
Method: as §3

A450 (13 nM Ab) [A450] | Binder
1.11 | B1
0.999 | B2
1.12 | B3
1.09 | B4
1.18 | B5

Biological target: T7, cynomolgus monkey IL-21R expressed on cells (cynomolgus monkey, UniProt G7Q0S8 41-559)
T7 construct: whole, on cells
Assay: cell ELISA, CHO cells
Method: as §3

A450 (13 nM Ab) [A450] | Binder
1.3 | B1
1.28 | B2
1.35 | B3
1.33 | B4
1.34 | B5

Biological target: T2, human gamma (γ) common chain expressed …
Assay: cell ELISA, CHO cells
Method: as §3

A450 (13 nM Ab) [A450] | Binder
0.108 | B1
0.137 | B2
0.111 | B3
0.107 | B4
0.108 | B5

Biological target: T5, human IL-21R expressed on cells
Assay: cell-based or functional assay

Human IL-21R-BaF3 Proliferation IC50 [pM] | Human IL-21R-TF1 Proliferation IC50 [pM] | Binder
770 | 3840 | B1
820 | 3360 | B2
970 | 3800 | B3
1140 | 3340 | B4
980 | 4000 | B5

Biological target: murine IL-21R expressed on cells (murine, UniProt Q9JHX3 20-529)
Sequence (Q9JHX3 20-529 limits assumed): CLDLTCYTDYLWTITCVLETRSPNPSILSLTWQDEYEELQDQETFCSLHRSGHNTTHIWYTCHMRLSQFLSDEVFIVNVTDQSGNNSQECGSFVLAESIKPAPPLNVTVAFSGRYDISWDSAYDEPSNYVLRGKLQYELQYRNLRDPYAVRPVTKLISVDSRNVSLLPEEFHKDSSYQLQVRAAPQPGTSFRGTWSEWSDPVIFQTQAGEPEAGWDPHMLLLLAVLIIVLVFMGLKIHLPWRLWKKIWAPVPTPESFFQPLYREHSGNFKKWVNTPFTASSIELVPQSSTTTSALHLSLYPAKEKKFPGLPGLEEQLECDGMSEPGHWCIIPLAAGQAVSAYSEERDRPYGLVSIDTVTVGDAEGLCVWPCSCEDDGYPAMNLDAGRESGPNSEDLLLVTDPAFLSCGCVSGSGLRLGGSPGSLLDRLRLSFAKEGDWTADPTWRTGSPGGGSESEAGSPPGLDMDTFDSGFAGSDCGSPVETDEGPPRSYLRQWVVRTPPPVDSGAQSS
Assay: cell-based or functional assay

Murine IL-21R-BaF3 Proliferation IC50 [pM] | Binder
70 | B1
30 | B2
80 | B3
421 | B4
79 | B5

Biological target: T6, rat IL-21R expressed on cells
Assay: cell-based ELISA on CHO cells transiently expressing rat IL-21R; HRP anti-human IgG, A450
Method: (§4) FIG. 6(a-l) depicts the binding of 21 anti-IL-21R IgGs to CHO cells transiently expressing human IL-21R (FIGS. 6a-c), rat IL-21R (FIGS. 6d-f), cynomolgus monkey IL-21R (FIGS. 6g-i), and human gamma common chain (FIGS. 6j-1). CHO cells were transiently transfected with IL-21R or the control gamma common chain, and binding was detected with HRP-conjugated anti-human IgG in a cell-based ELISA.
as §3

EC50 (read off the curve) [pM] | Binder
~900 | B1
~1000 | B2
~800 | B3
~2000 | B4
~1000 | B5

Biological target: T5, human IL-21R expressed on cells
Assay: cell-based ELISA on CHO cells transiently expressing human IL-21R; HRP anti-human IgG, A450
Method: as §4, §3

EC50 (read off the curve) [pM] | Binder
~500 | B1
~700 | B2
~500 | B3
~1000 | B4

Biological target: T7, cynomolgus monkey IL-21R expressed on …
Assay: cell-based ELISA on CHO cells transiently expressing cynomolgus monkey IL-21R; HRP anti-human IgG, A450
Method: as §4, §3

EC50 (read off the curve) [pM] | Binder
~500 | B1
~2000 | B2
~500 | B3
~600 | B4
~2000 | B5

Biological target: T2, human gamma (γ) common chain expressed …
Assay: cell-based ELISA on CHO cells transiently expressing human gamma common chain; HRP anti-human IgG, A450
Method: as §4, §3

binding result | Binder
no binding (tested: 40 nM) | B1
no binding (tested: 40 nM) | B2
no binding (tested: 40 nM) | B3
no binding (tested: 40 nM) | B4
no binding (tested: 40 nM) | B5
